Consider 48 substances from patent US11872270B2, “A*03 restricted peptides for use in immunotherapy against cancers and related methods” (Immatics Biotechnologies GmbH, priority 2018, dated 2024).

In one assay the test system is CD8+ T cells. The assay is described as follows: In vitro T-cell priming assay (immunogenicity) with aAPCs loaded with peptide/MHC complexes and anti-CD28 antibody. The class given is cell-based, human. As to conditions: for Wells positive [%]: in vitro immunogenicity; for in vitro immunogenicity (peptide-specific CD8+ T cell response): healthy donors, multimer staining after three cycles of stimulation.

Another assay concerns the target HLA-A*03:01 (Homo sapiens, UniProt P04439). The assay is described as follows: MHC binding assay (UV-ligand exchange, β2m ELISA). Conditions: binding to HLA-A*03:01, UV-ligand exchange, β2m ELISA. Put shortly: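 Peptide-MHC complexes formed by UV-ligand exchange of a UV-cleavable peptide for the test peptide; exchange yield quantified by β2m ELISA. Streptavidin-coated capture, samples diluted 100-fold, 1 h at 37 °C, HRP anti-β2m detection, TMB read at 450 nm against HLA-A*02:01/MLA-001 monomer standards (15–500 ng/ml).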

Setting [1] is: HLA-A*03 restricted peptides, Table 10b.

In the case of “232 (AVAPPTPASK; listed as Homo sapiens) [compound 232]”, the “Wells positive [%]” value in the assay with CD8+ T cells (Table 10a) was “+ (<20% = +)”.

Take “248 (GLASRILDAK; listed as Homo sapiens) [compound 248]”: the “Wells positive [%]” value in the assay on CD8+ T cells (Table 10a) is reported as “+ (<20% = +)”.

Turning to “46 (VVTGNVPLK; listed as Homo sapiens) [compound 46]”, the “Wells positive [%]” value with CD8+ T cells (setting [1]) was ““+” (1-19% = +)”. Besides, in the assay with HLA-A*03:01, the “Peptide exchange (MHC class I binding score, peptide exchange yield)” value (shortened to “Peptide exchange”) is given as “+++ (>50 = +++)”.

On to “81 (HLFLPFSYK; listed as Homo sapiens) [compound 81]”, for which the “Wells positive [%]” value in the assay with CD8+ T cells (setting [1]) was ““+” (1-19% = +)”. Besides, the “Peptide exchange” value with HLA-A*03:01 is “++++ (>75% = ++++)”.

Take “214 (KLFTSVFGVGLK; listed as Homo sapiens) [compound 214]”: the “Wells positive [%]” value in the assay with CD8+ T cells (setting [1]) is listed as ““+” (1-19% = +)”. In addition, the “Peptide exchange” value with HLA-A*03:01 is “++++ (>75% = ++++)”.

With “237 (VLYGPAGLGK; listed as Homo sapiens) [compound 237]”, in the assay on CD8+ T cells (Table 10a), the “Wells positive [%]” value is “+ (<20% = +)”.

As for “233 (KTYETNLEIKK; listed as Homo sapiens) [compound 233]”, the “Wells positive [%]” value in the assay with CD8+ T cells (Table 10a) is “+ (<20% = +)”.

Take “71 (VLYELGIIGNNK; listed as Homo sapiens) [compound 71]”: the “Wells positive [%]” value with CD8+ T cells (setting [1]) is listed as ““+” (1-19% = +)”. In the assay with HLA-A*03:01, the “Peptide exchange” value was “+++ (>50 = +++)”.

As for “64 (SVLSRMLVR; listed as Homo sapiens) [compound 64]”, the “Wells positive [%]” value with CD8+ T cells (setting [1]) is given as ““+” (1-19% = +)”. For the same substance, in the assay with HLA-A*03:01, the “Peptide exchange” value is “++++ (>75% = ++++)”.

As for “57 (RVLYRPQLEK; listed as Homo sapiens) [compound 57]”, the “Wells positive [%]” value with CD8+ T cells (setting [1]) is ““+” (1-19% = +)”. In the assay with HLA-A*03:01, the “Peptide exchange” value is “+++ (>50 = +++)”.

Regarding “GLASRILDAK (listed as Homo sapiens) [SEQ ID NO: 248]”, in the assay on CD8+ T cells, the “in vitro immunogenicity (peptide-specific CD8+ T cell response)” value is recorded as “peptide-specific in vitro CD8+ T cell responses”.

Take “45 (KCYEVGMMK; listed as Homo sapiens) [compound 45]”: the “Wells positive [%]” value in the assay on CD8+ T cells (setting [1]) is on record as ““+” (1-19% = +)”. Also, in the assay with HLA-A*03:01, the “Peptide exchange” value is “++++ (>75% = ++++)”.

Consider “52 (GMYEYGSIEK; listed as Homo sapiens) [compound 52]”, for which, in the assay on CD8+ T cells (setting [1]), the “Wells positive [%]” value is listed as ““+” (1-19% = +)”. Further, the “Peptide exchange” value with HLA-A*03:01 is listed as “++++ (>75% = ++++)”.

As for “249 (ATSGVPVYK; listed as Homo sapiens) [compound 249]”, the “Wells positive [%]” value in the assay on CD8+ T cells (Table 10a) is “++++ (>=70% = ++++)”.

Regarding “77 (VVDDSQLPK; listed as Homo sapiens) [compound 77]”, the “Wells positive [%]” value in the assay with CD8+ T cells (setting [1]) is ““+” (1-19% = +)”. Further, the “Peptide exchange” value in the assay with HLA-A*03:01 is “++ (>20% = ++)”.

Regarding “234 (VVFPFPVNK; listed as Homo sapiens) [compound 234]”, in the assay with CD8+ T cells (Table 10a), the “Wells positive [%]” value is given as “+ (<20% = +)”.

As to “33 (KLLEDMVEK; listed as Homo sapiens) [compound 33]”, the “Wells positive [%]” value in the assay on CD8+ T cells (setting [1]) was ““+” (1-19% = +)”. Also, the “Peptide exchange” value in the assay with HLA-A*03:01 was “++ (>20% = ++)”.

Regarding “ATSGVPVYK (listed as Homo sapiens) [SEQ ID NO: 249]”, the “in vitro immunogenicity (peptide-specific CD8+ T cell response)” value in the assay on CD8+ T cells is “peptide-specific in vitro CD8+ T cell responses”.

In the case of “124 (VVYDTMIEK; listed as Homo sapiens) [compound 124]”, in the assay with HLA-A*03:01, the “Peptide exchange” value is recorded as “+++ (>50 = +++)”.

Turning to “201 (KVADFGLARLLK; listed as Homo sapiens) [compound 201]”, the “Peptide exchange” value with HLA-A*03:01 is on record as “++++ (>75% = ++++)”.

Regarding “137 (TVYVAMCHKF; listed as Homo sapiens) [compound 137]”, the “Peptide exchange” value with HLA-A*03:01 was “++++ (>75% = ++++)”.

With “221 (RLAVSTRGK; listed as Homo sapiens) [compound 221]”, the “Peptide exchange” value with HLA-A*03:01 is “++++ (>75% = ++++)”.

In the case of “55 (RLSAESKDLLK; listed as Homo sapiens) [compound 55]”, in the assay with HLA-A*03:01, the “Peptide exchange” value is reported as “+++ (>50 = +++)”.

Turning to “141 (RLRDYISSLK; listed as Homo sapiens) [compound 141]”, the “Peptide exchange” value with HLA-A*03:01 was “++++ (>75% = ++++)”.

Consider “107 (ILNLNKMVK; listed as Homo sapiens) [compound 107]”, for which the “Peptide exchange” value with HLA-A*03:01 is “+++ (>50 = +++)”.

On to “109 (KLQNLPTLLY; listed as Homo sapiens) [compound 109]”, for which the “Peptide exchange” value with HLA-A*03:01 is given as “+++ (>50 = +++)”.

For “191 (SLYNLGGAK; listed as Homo sapiens) [compound 191]”, the “Peptide exchange” value with HLA-A*03:01 is given as “++++ (>75% = ++++)”.

Turning to “192 (RSYSHVVLK; listed as Homo sapiens) [compound 192]”, in the assay with HLA-A*03:01, the “Peptide exchange” value is listed as “++++ (>75% = ++++)”.

For the substance “197 (RIVDYLLEK; listed as Homo sapiens) [compound 197]”, the “Peptide exchange” value with HLA-A*03:01 is “++++ (>75% = ++++)”.

Turning to “163 (MLYYPSVSR; listed as Homo sapiens) [compound 163]”, the “Peptide exchange” value with HLA-A*03:01 was “++++ (>75% = ++++)”.

With “200 (RVLPPLTRILK; listed as Homo sapiens) [compound 200]”, the “Peptide exchange” value with HLA-A*03:01 is “++++ (>75% = ++++)”.

Consider “58 (VLYRPQLEK; listed as Homo sapiens) [compound 58]”, for which, in the assay with HLA-A*03:01, the “Peptide exchange” value was “++++ (>75% = ++++)”.

As to “144 (PLAMLAATCNK; listed as Homo sapiens) [compound 144]”, the “Peptide exchange” value with HLA-A*03:01 is on record as “++ (>20% = ++)”.

Consider “100 (TTNARILAR; listed as Homo sapiens) [compound 100]”, for which the “Peptide exchange” value in the assay with HLA-A*03:01 is “+++ (>50 = +++)”.

Take “117 (TVFVELWLK; listed as Homo sapiens) [compound 117]”: in the assay with HLA-A*03:01, the “Peptide exchange” value is listed as “++ (>20% = ++)”.

With “37 (EVILTTKTPK; listed as Homo sapiens) [compound 37]”, the “Peptide exchange” value with HLA-A*03:01 was “++ (>20% = ++)”.

For “69 (GLSTILLYH; listed as Homo sapiens) [compound 69]”, the “Wells positive [%]” value with CD8+ T cells (setting [1]) was ““+” (1-19% = +)”. The “Peptide exchange” value with HLA-A*03:01 is listed as “++++ (>75% = ++++)”.

As for “184 (KVLEPPLGAR; listed as Homo sapiens) [compound 184]”, the “Peptide exchange” value with HLA-A*03:01 was “+++ (>50 = +++)”.

For the substance “50 (HSAGIFSMY; listed as Homo sapiens) [compound 50]”, in the assay with HLA-A*03:01, the “Peptide exchange” value was “++ (>20% = ++)”.

With “29 (KVLSILSRLK; listed as Homo sapiens) [compound 29]”, in the assay on CD8+ T cells (setting [1]), the “Wells positive [%]” value is on record as ““+” (1-19% = +)”. In the assay with HLA-A*03:01, the “Peptide exchange” value is given as “+++ (>50 = +++)”.

As to “51 (VTADGALAMEK; listed as Homo sapiens) [compound 51]”, the “Peptide exchange” value with HLA-A*03:01 is given as “+++ (>50 = +++)”.

For “90 (RTALLWGLKK; listed as Homo sapiens) [compound 90]”, the “Peptide exchange” value in the assay with HLA-A*03:01 is “++++ (>75% = ++++)”.

With “154 (TIASVLVAR; listed as Homo sapiens) [compound 154]”, in the assay with HLA-A*03:01, the “Peptide exchange” value is reported as “++ (>20% = ++)”.

As to “18 (RLYYSFKNITK; listed as Homo sapiens) [compound 18]”, in the assay with HLA-A*03:01, the “Peptide exchange” value is reported as “++++ (>75% = ++++)”.

In the case of “76 (IINESLLFY; listed as Homo sapiens) [compound 76]”, in the assay with HLA-A*03:01, the “Peptide exchange” value was “+++ (>50 = +++)”.

Take “156 (VSLGIAVSK; listed as Homo sapiens) [compound 156]”: in the assay with HLA-A*03:01, the “Peptide exchange” value was “++ (>20% = ++)”.

Regarding “24 (KLETGVVKK; listed as Homo sapiens) [compound 24]”, the “Peptide exchange” value in the assay with HLA-A*03:01 is listed as “++++ (>75% = ++++)”.

Regarding “212 (RTIDRSVFK; listed as Homo sapiens) [compound 212]”, the “Peptide exchange” value with HLA-A*03:01 is recorded as “++++ (>75% = ++++)”.
